Assay results from paper doi:10.1101/871988.

Target: recombinant human scavenger receptor B1 (SRB1) (human) (UniProt Q8WTV0)
Assay: SPR

Sequence of UniProt Q8WTV0 (Q8WTV0 whole entry): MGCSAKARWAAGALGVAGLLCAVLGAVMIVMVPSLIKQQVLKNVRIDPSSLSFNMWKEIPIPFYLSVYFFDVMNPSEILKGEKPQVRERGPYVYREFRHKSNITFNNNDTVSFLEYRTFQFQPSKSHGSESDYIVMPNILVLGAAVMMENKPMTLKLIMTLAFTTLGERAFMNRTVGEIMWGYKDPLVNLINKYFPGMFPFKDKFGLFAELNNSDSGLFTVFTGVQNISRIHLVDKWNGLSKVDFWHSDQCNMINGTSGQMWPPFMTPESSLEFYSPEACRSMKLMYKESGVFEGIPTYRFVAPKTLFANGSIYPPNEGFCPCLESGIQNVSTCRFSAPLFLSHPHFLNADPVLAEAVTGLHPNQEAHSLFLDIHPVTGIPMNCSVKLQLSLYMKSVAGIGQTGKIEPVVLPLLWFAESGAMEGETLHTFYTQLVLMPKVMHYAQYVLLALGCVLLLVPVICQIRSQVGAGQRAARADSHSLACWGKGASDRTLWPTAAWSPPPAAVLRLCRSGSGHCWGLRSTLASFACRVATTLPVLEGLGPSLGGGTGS

Substance | Kd [nM]
human high density lipoprotein (HDL) (from UniProt P02647 19-267) (complex) | 18.7
recombinant dengue virus non-structural protein 1 (DENV NS1) (natural protein) | 47
